In article PMC2770179 (Journal of molecular catalysis. B, Enzymatic, 2009):
Changes are numbered by the printed parent chain.

Columns and labels:
[1] = target: T1, L2S of hE2 (residues 128-330) mutant R297A (human, UniProt P10515 214-416, R297A); assay: SPR
T1 sequence (looked up): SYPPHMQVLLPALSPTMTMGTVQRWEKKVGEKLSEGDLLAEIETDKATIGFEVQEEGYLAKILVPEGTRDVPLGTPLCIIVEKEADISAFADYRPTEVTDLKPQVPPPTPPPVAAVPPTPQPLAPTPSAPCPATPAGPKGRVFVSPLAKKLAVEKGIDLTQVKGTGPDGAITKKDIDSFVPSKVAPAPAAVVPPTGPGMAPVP

[2] = target: T2, L2S of hE2 (residues 128-330) mutant K276A (human, UniProt P10515 214-416, K276A); assay: SPR
T2 sequence (looked up): T1 sequence (looked up) with K149A, A170R

B1: human pyruvate dehydrogenase (E1), wild type, α2β2 heterotetramer (complex)
chain 1: FANDATFEIKKCDLHRLEEGPPVTTVLTREDGLKYYRMMQTVRRMELKADQLYKQKIIRGFCHLCDGQEACCVGLEAGINPTDHLITAYRAHGFTFTRGLSVREILAELTGRKGGCAKGKGGSMHMYAKNFYGGNGIVGAQVPLGAGIALACKYNGKDEVCLTLYGDGAANQGQIFEAYNMAALWKLPCIFICENNRYGMGTSVERAAASTDYYKRGDFIPGLRVDGMDILCVREATRFAAAYCRSGKGPILMELQTYRYHGHSMSDPGVSYRTREEIQEVRSKSDPIMLLKDRMVNSNLASVEELKEIDVEVRKEIEDAAQFATADPEPPLEELGYHIYSSDPPFEVRGANQWIKFKSVS
chain 2: LQVTVRDAINQGMDEELERDEKVFLLGEEVAQYDGAYKVSRGLWKKYGDKRIIDTPISEMGFAGIAVGAAMAGLRPICEFMTFNFSMQAIDQVINSAAKTYYMSGGLQPVPIVFRGPNGASAGVAAQHSQCFAAWYGHCPGLKVVSPWNSEDAKGLIKSAIRDNNPVVVLENELMYGVPFEFPPEAQSKDFLIPIGKAKIERQGTHITVVSHSRPVGHCLEAAAVLSKEGVECEVINMRTIRPMDMETIEASVMKTNHLVTVEGGWPQFGVGAEICARIMEGPAFNFLDAPAVRVTGADVPMPYAKILEDNSIPQVKDIIFAIKKTLNI
In the case of B1, the “fold increase in KD against wild-type L2S” value [1] is reported as 6.8 fold and the “fold increase in KD against wild-type L2S” value [2] is reported as roughly 86 fold.
